{"source": "patent CN113045656A", "about": "(TAIZHOU ENZE MEDICAL CT GROUP, dated 2021)", "binders": {"B1": {"name": "抗HLA-G异构体分子HLA-G5及HLA-G6的单克隆抗体(9Y5G6) (antibody, V domains shown)", "VH": "VQLQESGGGLVQPGGSRKLSCAASGFTFRDFGMAWVRQVPGMGPEWVASISNLARIIDYADTVTGRFTISRENAKNTLYLEMNSLRSEDSAIYYCARVTTIVPDYWGQGTSLTVSS", "VL": "DIVITQDELSLPVSLGDHTSISCRSSQSLLHSNGHTYLHWYLQKPGQSPKLLIYKVSNRFSGVPDRFSGSGSGTDFTLKISRVEAEDLGVYFCSQSTHVPWTFGGGTKVEIKR", "notes": "only the CDRs are; also called 抗HLA-G单克隆抗体(9Y5G6)"}}, "target": "T1, G5-pep2(299-319aa) 抗原肽 (human)", "T1 peptide": "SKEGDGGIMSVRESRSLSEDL", "assay": "indirect ELISA, peptide coated at 2 ug/ml, purified antibody in 2-fold dilutions from 1:200, logistic fit", "data": [{"binder": "B1", "values": [{"measurement": "Ka", "result": "1.5e+11", "unit": "M⁻¹"}, {"measurement": "X0 (midpoint of the logistic fit, antibody dilution factor)", "result": "1.56e+06", "unit": "dilution fold"}]}]}
